In patent US7410774B1, “Compounds modulating sister chromatid separation and method for identifying same” (Boehringer Ingelheim International GmbH, priority 1999, dated 2008):

Assays:
Esp1 = target: T1, Esp1 (Saccharomyces cerevisiae, UniProt Q03018); test: In vitro assay for yeast Esp1p activity (Esp1-dependent Scc1p cleavage); type: biochemical; conditions: yeast chromatin incubated with extract over-producing Esp1; Western blot
T1 construct: made in house; host or cells: S. cerevisiae W303 derivative overexpressing Esp1p from the GAL1-10 promoter; soluble cell extract, not purified
Description: A crude Triton X-100 insoluble chromatin preparation was obtained from yeast cells as described (Liang and Stillman, 1997). The pelleted chromatin was resuspended in yeast cell extracts that had been prepared similar to the supernatant fraction of the chromatin preparation. One tenth volume of an ATP regenerating system was added (50 mM HEPES/KOH pH-7.5, 100 mM KCl, 10 mM MgCl2, 10 mM ATP, 600 mM creatin phosphate, 1.5 mg/ml phophocreatin kinase, 1 mM DTT, 10% glycerol). Reactions were incubated for 10 min at 25° C. with shaking and stopped on ice. The chromatin fraction was separated again from the supernatant by centrifugation, and resuspended in buffer EBX (Liang and Stillman, 1997). Equivalent aliquots of supernatant and chromatin pellet were analysed by SDS-PAGE and Western blotting. Scc1-HA was detected with the anti-HA monoclonal antibody 16B12 (Boehringer Mannheim). […]
Chromatin was prepared from a strain containing Scc1p tagged with HA epitopes that was arrested in metaphase with nocodazol. The proteins in the chromatin preparation were resolved by SDS-PAGE and Scc1-HA was detected by western blotting (FIG. 2, lane 1). […] Aliquots of the supernatant fraction and the chromatin fraction of each reaction were analysed.

[1] = target: T2, Scc1p tagged with multiple HA epitopes, chromatin-bound (chromatin of nocodazole-arrested yeast), Q12158
T2 chain: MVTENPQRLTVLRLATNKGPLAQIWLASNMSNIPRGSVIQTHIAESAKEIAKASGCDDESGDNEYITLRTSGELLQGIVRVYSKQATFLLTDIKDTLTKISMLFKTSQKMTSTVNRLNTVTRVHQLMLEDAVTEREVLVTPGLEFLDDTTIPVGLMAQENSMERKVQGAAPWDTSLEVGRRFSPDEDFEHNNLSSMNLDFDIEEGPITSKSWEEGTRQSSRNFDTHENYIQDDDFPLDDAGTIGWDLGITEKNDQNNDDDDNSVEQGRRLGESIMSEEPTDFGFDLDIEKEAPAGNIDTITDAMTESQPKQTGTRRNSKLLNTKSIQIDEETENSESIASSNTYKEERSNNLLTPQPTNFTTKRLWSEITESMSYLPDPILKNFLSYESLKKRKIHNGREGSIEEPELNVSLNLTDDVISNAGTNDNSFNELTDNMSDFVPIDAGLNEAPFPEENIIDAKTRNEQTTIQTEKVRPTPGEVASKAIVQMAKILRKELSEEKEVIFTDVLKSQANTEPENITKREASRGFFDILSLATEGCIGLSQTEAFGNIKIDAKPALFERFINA

Molecule: CCN1C(=O)C=CC1=O [N-ethyl maleimide]
- Esp1-dependent in vitro cleavage of Scc1p (Esp1): inhibited

B1: Esp1 mutant C1531A tagged with a FLAG epitope, overexpressed in yeast (protein)
chain: MMVKQEEPLNEISPNTPMTSKSYLLNDTLSKVHHSGQTRPLTSVLSGDASSNSIGILAMHNNIIRDFTKIASNNIDLAIEDITTVDHSLNSIYSLLKSHHMWGHINSTVKQHLMIIVKLINNNALGLASSEIIFLFNETNLFQAHSLKNILLADFSTWNDYYLSNLKILALQIILKRKLVDEYLPHILELFSHDKRYLLKDPNLKAHALTKIVLSFFSVTTSCKVLFGLKFLQYIKQFKLPFKKFISNITVECFSKNLLHKNYLEMGPNKIYLNSFYLSYSMLYDGLDKIMLLDILSYEETTEVQRAIKSKKEFNEYCNMSENRLLWSCISVDDLNVILENATNFLQNKGKHISATLKCLVCLWSTIRLEGLPKNKDILRQFDCTVIYINSNIKSINDESAAALLSELLGVLSEICIDYKEPKRLSNIISVLFNASVLFKSHSFLLKTANLEISNVLISNDSKTSHRTILKFEKFISSAQSAQKKIEIFSCLFNVYCMLRNDTLSFVFDFCQNAFIHCFTRLKITKFIEFSNSSEIMLSVLYGNSSIENIPSENWSQLSRMIFCSLRGIFDLDPLELNNTFDKLHLLNKYELLIRIVYLLNLDMSKHLTTNLSKITKLYINKWLQKSDEKAERISSFEMDFVKMLLCYLNFNNFDKLSIELSLCIKSKEKYYSSIVPYADNYLLEAYLSLYMIDDALMMKNQLQKTMNLSTAKIEQALLHASSLINVHLWDSDLTAFQIYFGKTLPAMKPELFDINNDHNLPMSLYIKVILLNIKIFNESAKLNIKAGNVISAVIDCRKAQNLALSLLKKKNKLSQGSRLALLKSLSFSFFQLIKIHIRIGSARDCEFYSKELSRIISDLEEPIIVYRCLHFLHRYYMITEQTCLQNITLGKANKAFDYLDAEADITSLTMFLYDNKEFVKLEQSLVLYFGDQLEKTFLPNLWKLHLGKDIDDSICLSEYMPKNVINRVHNMWQKVMSQLEEDPFFKGMFESTLGIPSSLPVIPSTMPNNILKTPSKHSTGLKLCDSPRSSSMTPRGKNIRQKFDRIAAISKLKQMKELLESLKLDTLDNHELSKISSLSSLTLTILSNITSIHNAESSLITNFSLTDLPRHMPLLFDKVLNNIDNKNYREFRVSSLIAPNNISTITESIRVSAAQKDLMESNLNINVITIDFCPITGNLLLSKLEPRRKRRTHLRLPLIRSNSRDLDEVHLSFPEATKKLLSIINESNQTTSVEVTNKIKTREERKSWWTTRYDLDKRMQQLLNNIENSWFNGVQGFFSPEVVDNSLFEKFKDKFYEILHQNLPSRKLYGNPAMFIKVEDWVIELFLKLNPQEIDFLSKMEDLIYFVLDILLFHGEENAYDEIDFSMLHVQLEEQIKKYRATMTTNSIFHTFLVVSSSCHLFPWECLSFLKDLSITRVPSYVCLNKLLSRFHYQLPLQVTIEDNISMILNPNGDLSRTESKFKGMFQKIIDAKPSSQLVMNEKPEEETLLKMLQNSNLFVYIGHGGGEQYVRSKEIKKCTKIAPSFLLGASSAAMKYYGKLEPTGTIYTYLLGGCPMVLGNLWDVTDKDIDKFSEELFEKMGFRCNTDDLNGNSLSVSYAVSKSRGVCHLRYLNGAAPVIYGLPIKFVS
- Scc1 cleavage activity in yeast extracts [1]: Both mutations completely abolished the proteolytic activity in yeast extracts after overproduction of the proteins

B2: Wildtype Esp1 tagged with a FLAG epitope, overexpressed in yeast (protein)
chain: MMVKQEEPLNEISPNTPMTSKSYLLNDTLSKVHHSGQTRPLTSVLSGDASSNSIGILAMHNNIIRDFTKIASNNIDLAIEDITTVDHSLNSIYSLLKSHHMWGHINSTVKQHLMIIVKLINNNALGLASSEIIFLFNETNLFQAHSLKNILLADFSTWNDYYLSNLKILALQIILKRKLVDEYLPHILELFSHDKRYLLKDPNLKAHALTKIVLSFFSVTTSCKVLFGLKFLQYIKQFKLPFKKFISNITVECFSKNLLHKNYLEMGPNKIYLNSFYLSYSMLYDGLDKIMLLDILSYEETTEVQRAIKSKKEFNEYCNMSENRLLWSCISVDDLNVILENATNFLQNKGKHISATLKCLVCLWSTIRLEGLPKNKDILRQFDCTVIYINSNIKSINDESAAALLSELLGVLSEICIDYKEPKRLSNIISVLFNASVLFKSHSFLLKTANLEISNVLISNDSKTSHRTILKFEKFISSAQSAQKKIEIFSCLFNVYCMLRNDTLSFVFDFCQNAFIHCFTRLKITKFIEFSNSSEIMLSVLYGNSSIENIPSENWSQLSRMIFCSLRGIFDLDPLELNNTFDKLHLLNKYELLIRIVYLLNLDMSKHLTTNLSKITKLYINKWLQKSDEKAERISSFEMDFVKMLLCYLNFNNFDKLSIELSLCIKSKEKYYSSIVPYADNYLLEAYLSLYMIDDALMMKNQLQKTMNLSTAKIEQALLHASSLINVHLWDSDLTAFQIYFGKTLPAMKPELFDINNDHNLPMSLYIKVILLNIKIFNESAKLNIKAGNVISAVIDCRKAQNLALSLLKKKNKLSQGSRLALLKSLSFSFFQLIKIHIRIGSARDCEFYSKELSRIISDLEEPIIVYRCLHFLHRYYMITEQTCLQNITLGKANKAFDYLDAEADITSLTMFLYDNKEFVKLEQSLVLYFGDQLEKTFLPNLWKLHLGKDIDDSICLSEYMPKNVINRVHNMWQKVMSQLEEDPFFKGMFESTLGIPSSLPVIPSTMPNNILKTPSKHSTGLKLCDSPRSSSMTPRGKNIRQKFDRIAAISKLKQMKELLESLKLDTLDNHELSKISSLSSLTLTILSNITSIHNAESSLITNFSLTDLPRHMPLLFDKVLNNIDNKNYREFRVSSLIAPNNISTITESIRVSAAQKDLMESNLNINVITIDFCPITGNLLLSKLEPRRKRRTHLRLPLIRSNSRDLDEVHLSFPEATKKLLSIINESNQTTSVEVTNKIKTREERKSWWTTRYDLDKRMQQLLNNIENSWFNGVQGFFSPEVVDNSLFEKFKDKFYEILHQNLPSRKLYGNPAMFIKVEDWVIELFLKLNPQEIDFLSKMEDLIYFVLDILLFHGEENAYDEIDFSMLHVQLEEQIKKYRATMTTNSIFHTFLVVSSSCHLFPWECLSFLKDLSITRVPSYVCLNKLLSRFHYQLPLQVTIEDNISMILNPNGDLSRTESKFKGMFQKIIDAKPSSQLVMNEKPEEETLLKMLQNSNLFVYIGHGGGEQYVRSKEIKKCTKIAPSFLLGCSSAAMKYYGKLEPTGTIYTYLLGGCPMVLGNLWDVTDKDIDKFSEELFEKMGFRCNTDDLNGNSLSVSYAVSKSRGVCHLRYLNGAAPVIYGLPIKFVS
- Scc1 cleavage activity in yeast extracts [1]: Wild type Esp1 overexpressed to a similar level caused complete cleavage of the Scc1 substrate

B3: Esp1 mutant H1505A tagged with a FLAG epitope, overexpressed in yeast (protein)
chain: MMVKQEEPLNEISPNTPMTSKSYLLNDTLSKVHHSGQTRPLTSVLSGDASSNSIGILAMHNNIIRDFTKIASNNIDLAIEDITTVDHSLNSIYSLLKSHHMWGHINSTVKQHLMIIVKLINNNALGLASSEIIFLFNETNLFQAHSLKNILLADFSTWNDYYLSNLKILALQIILKRKLVDEYLPHILELFSHDKRYLLKDPNLKAHALTKIVLSFFSVTTSCKVLFGLKFLQYIKQFKLPFKKFISNITVECFSKNLLHKNYLEMGPNKIYLNSFYLSYSMLYDGLDKIMLLDILSYEETTEVQRAIKSKKEFNEYCNMSENRLLWSCISVDDLNVILENATNFLQNKGKHISATLKCLVCLWSTIRLEGLPKNKDILRQFDCTVIYINSNIKSINDESAAALLSELLGVLSEICIDYKEPKRLSNIISVLFNASVLFKSHSFLLKTANLEISNVLISNDSKTSHRTILKFEKFISSAQSAQKKIEIFSCLFNVYCMLRNDTLSFVFDFCQNAFIHCFTRLKITKFIEFSNSSEIMLSVLYGNSSIENIPSENWSQLSRMIFCSLRGIFDLDPLELNNTFDKLHLLNKYELLIRIVYLLNLDMSKHLTTNLSKITKLYINKWLQKSDEKAERISSFEMDFVKMLLCYLNFNNFDKLSIELSLCIKSKEKYYSSIVPYADNYLLEAYLSLYMIDDALMMKNQLQKTMNLSTAKIEQALLHASSLINVHLWDSDLTAFQIYFGKTLPAMKPELFDINNDHNLPMSLYIKVILLNIKIFNESAKLNIKAGNVISAVIDCRKAQNLALSLLKKKNKLSQGSRLALLKSLSFSFFQLIKIHIRIGSARDCEFYSKELSRIISDLEEPIIVYRCLHFLHRYYMITEQTCLQNITLGKANKAFDYLDAEADITSLTMFLYDNKEFVKLEQSLVLYFGDQLEKTFLPNLWKLHLGKDIDDSICLSEYMPKNVINRVHNMWQKVMSQLEEDPFFKGMFESTLGIPSSLPVIPSTMPNNILKTPSKHSTGLKLCDSPRSSSMTPRGKNIRQKFDRIAAISKLKQMKELLESLKLDTLDNHELSKISSLSSLTLTILSNITSIHNAESSLITNFSLTDLPRHMPLLFDKVLNNIDNKNYREFRVSSLIAPNNISTITESIRVSAAQKDLMESNLNINVITIDFCPITGNLLLSKLEPRRKRRTHLRLPLIRSNSRDLDEVHLSFPEATKKLLSIINESNQTTSVEVTNKIKTREERKSWWTTRYDLDKRMQQLLNNIENSWFNGVQGFFSPEVVDNSLFEKFKDKFYEILHQNLPSRKLYGNPAMFIKVEDWVIELFLKLNPQEIDFLSKMEDLIYFVLDILLFHGEENAYDEIDFSMLHVQLEEQIKKYRATMTTNSIFHTFLVVSSSCHLFPWECLSFLKDLSITRVPSYVCLNKLLSRFHYQLPLQVTIEDNISMILNPNGDLSRTESKFKGMFQKIIDAKPSSQLVMNEKPEEETLLKMLQNSNLFVYIGAGGGEQYVRSKEIKKCTKIAPSFLLGCSSAAMKYYGKLEPTGTIYTYLLGGCPMVLGNLWDVTDKDIDKFSEELFEKMGFRCNTDDLNGNSLSVSYAVSKSRGVCHLRYLNGAAPVIYGLPIKFVS
- Scc1 cleavage activity in yeast extracts [1]: Both mutations completely abolished the proteolytic activity in yeast extracts after overproduction of the proteins
